Reference: publication PMC3069404 (The Journal of Biological Chemistry, 2011)

Experiments:
Cse4 (recombinant) = Cse4 (recombinant) (S. cerevisiae, UniProt P36012 1-229); assay: reconstitution of the complex from the separate proteins
Cse4/H4 = Cse4/H4 (S. cerevisiae, UniProt P36012 1-229; P02309 1-103); assay: as above
Sequence of Cse4/H4 (P36012 whole entry, one chain of several): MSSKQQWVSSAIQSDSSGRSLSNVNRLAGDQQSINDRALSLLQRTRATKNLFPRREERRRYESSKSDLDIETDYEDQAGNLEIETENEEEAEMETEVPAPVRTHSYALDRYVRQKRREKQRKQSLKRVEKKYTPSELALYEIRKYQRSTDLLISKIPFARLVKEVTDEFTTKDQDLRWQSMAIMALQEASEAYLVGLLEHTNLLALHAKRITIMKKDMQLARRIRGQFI

Sequence of Cse4 (recombinant) (P36012 whole entry): as the sequence (P36012 whole entry, one chain of several) above

B1: His6-Scm3-Δ25N (recombinant) (domain or fragment, S. cerevisiae, UniProt Q12334 26-223, looked up)
chain: ESGKKSESKIRKHSDCNPVHRVYPPNIEKRKTKKDDGISRPIAERNGHVYIMSKENHIIPKLTDDEVMERHKLADENMRKVWSNIISKYESIEEQGDLVDLKTGEIVEDNGHIKTLTANNSTKDKRTKYTSVLRDIIDISDEEDGDKNDEYTLWANDSEASDSEVDADNDTEEEKDEKLIDADFKKYEAKLSKRILRD
B1: binds (Cse4 (recombinant)); binds (Cse4/H4).
